Experimental data: patent US20080194482A1, “Selective Apac2 Receptor Peptide Agonists” (priority 2005, published 2008)
Numbered stars: 1 amine (or outer) side, 2 acyl side, 3 side chain; on linkers, the order of the positions; unused ones are H or OH. Square brackets hold non-standard residues; d marks the D form. Ends that are not written are not given here. Peptide text beside a SMILES is read from it. * marks the point of attachment. Tyr(OMe) = O-methyl-tyrosine, COc1ccc(C[C@H](N[*:1])C(=O)[*:2])cc1; Orn = NCCC[C@H](N)C(=O)O; Hexanoyl = CCCCCC(=O)*; Aib = CC(C)(N)C(=O)O

B1: VPAC2 receptor peptide agonist P487 (peptide)
peptide: HSDAVFTEQYTXLRXQLAAXXYLQSIXXGGPSSGAPPPS
modifications: N-terminal hexanoyl (C6); Tyr(OMe) at 10; Orn at 12, 21, 27 and 28; Aib at 15 and 20; C-terminal amide (-NH2)

Target: T1, human VPAC2 receptor (human, UniProt P41587 24-438)
T1 sequence (looked up): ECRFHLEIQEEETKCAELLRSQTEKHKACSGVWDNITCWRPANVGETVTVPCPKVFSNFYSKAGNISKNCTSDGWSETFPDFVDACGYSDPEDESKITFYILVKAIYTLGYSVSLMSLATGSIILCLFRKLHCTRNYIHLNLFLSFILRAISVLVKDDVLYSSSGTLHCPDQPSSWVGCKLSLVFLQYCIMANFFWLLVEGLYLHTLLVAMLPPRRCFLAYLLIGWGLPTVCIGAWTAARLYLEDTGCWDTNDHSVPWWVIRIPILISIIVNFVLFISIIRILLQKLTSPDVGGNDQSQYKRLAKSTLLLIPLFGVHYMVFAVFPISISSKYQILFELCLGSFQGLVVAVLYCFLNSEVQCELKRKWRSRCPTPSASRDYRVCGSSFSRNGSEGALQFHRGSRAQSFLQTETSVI
Assay: cell-based or functional assay
Details: not given

Molecule | Human VPAC2 Receptor: Alpha Screen (EC50; nM), cAMP generation
HSDAVFTDQYTXLRXQLAAXXYLQSIXXGGPSSGAPPPS (N-terminal hexanoyl (C6); Orn at 12, 21, 27 and 28; Aib at 15 and 20) [VPAC2 receptor peptide agonist P395] | 0.15 nM
B1 | 0.24 nM
HSDAVFTDQYTXLRXQVAAXXYLQSIXXGGPSSGAPPPS (N-terminal hexanoyl (C6); Orn at 12, 21, 27 and 28; Aib at 15 and 20) [VPAC2 receptor peptide agonist P396] | 0.11 nM
Hexanoyl-HSEAVFTEQ[Tyr(OMe)]TR[Aib]R[Aib]QLAA[Aib]KYLQSIK[Aib]KGGPSSGAPPPS [VPAC2 receptor peptide agonist P409] | 0.19 nM
HSDAVFTDNYTXLRXSVAAXKYLQSIXNXGGPSSGAPPPS (N-terminal hexanoyl (C6); Orn at 12, 27 and 29; Aib at 15 and 20) [VPAC2 receptor peptide agonist P390] | 0.12 nM
Hexanoyl-HSDAVFTDQYTR[Aib]R[Aib]QLAA[Aib]KYLQSIK[Aib]KGGPSSGAPPPS [VPAC2 receptor peptide agonist P407] | 0.12 nM

Target: T2, rat VPAC2 receptor (rat, UniProt P35000 23-437)
T2 sequence (looked up): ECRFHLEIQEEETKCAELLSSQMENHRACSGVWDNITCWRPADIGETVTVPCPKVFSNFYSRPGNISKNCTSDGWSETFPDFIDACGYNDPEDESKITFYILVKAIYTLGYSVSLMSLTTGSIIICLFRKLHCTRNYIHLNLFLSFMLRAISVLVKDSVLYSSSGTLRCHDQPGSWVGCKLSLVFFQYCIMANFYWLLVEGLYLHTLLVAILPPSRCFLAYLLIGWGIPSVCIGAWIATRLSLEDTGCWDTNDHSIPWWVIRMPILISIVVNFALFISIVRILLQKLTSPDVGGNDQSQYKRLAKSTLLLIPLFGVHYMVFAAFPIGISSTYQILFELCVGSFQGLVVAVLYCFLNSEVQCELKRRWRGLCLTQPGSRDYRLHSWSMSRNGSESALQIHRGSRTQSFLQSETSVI
Assay: cell-based or functional assay
Details: not given

Molecule | Rat VPAC2 Receptor: DiscoveRx (EC50; nM), cAMP generation
HSDAVFTDQYTXLRXQLAAXXYLQSIXXGGPSSGAPPPS (N-terminal hexanoyl (C6); Orn at 12, 21, 27 and 28; Aib at 15 and 20) [VPAC2 receptor peptide agonist P395] | 0.03 nM
B1 | 0.03 nM
HSDAVFTDQYTXLRXQVAAXXYLQSIXXGGPSSGAPPPS (N-terminal hexanoyl (C6); Orn at 12, 21, 27 and 28; Aib at 15 and 20) [VPAC2 receptor peptide agonist P396] | 0.05 nM
Hexanoyl-HSDAVFTDNYTR[Aib]R[Aib]QVAA[Aib]KYLQSIK[Aib]KGGPSSGAPPPS [VPAC2 receptor peptide agonist P405] | 0.04 nM
HSDAVFTDNYTXLRXSVAAXKYLQSIXNXGGPSSGAPPPS (N-terminal hexanoyl (C6); Orn at 12, 27 and 29; Aib at 15 and 20) [VPAC2 receptor peptide agonist P390] | 0.09 nM
Hexanoyl-HSDAVFTDQYTR[Aib]R[Aib]QLAA[Aib]KYLQSIK[Aib]KGGPSSGAPPPS [VPAC2 receptor peptide agonist P407] | 0.03 nM

Target: T3, rat VPAC1 receptor (rat, UniProt P30083 31-459)
T3 sequence (looked up): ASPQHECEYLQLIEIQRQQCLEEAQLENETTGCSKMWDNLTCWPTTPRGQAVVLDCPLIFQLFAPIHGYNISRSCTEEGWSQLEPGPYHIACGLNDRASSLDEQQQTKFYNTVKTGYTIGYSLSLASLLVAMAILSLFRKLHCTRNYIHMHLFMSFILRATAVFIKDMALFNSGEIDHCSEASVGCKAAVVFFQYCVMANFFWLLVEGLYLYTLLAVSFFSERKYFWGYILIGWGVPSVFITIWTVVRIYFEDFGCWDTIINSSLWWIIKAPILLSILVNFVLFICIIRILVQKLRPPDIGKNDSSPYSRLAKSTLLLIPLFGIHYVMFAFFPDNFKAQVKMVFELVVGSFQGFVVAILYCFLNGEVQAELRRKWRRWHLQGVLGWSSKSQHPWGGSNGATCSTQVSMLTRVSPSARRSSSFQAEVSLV
Assay: cell-based or functional assay
Details: not given

Molecule | Rat VPAC1 Receptor: DiscoveRx (EC50; nM), cAMP generation
HSDAVFTDQYTXLRXQLAAXXYLQSIXXGGPSSGAPPPS (N-terminal hexanoyl (C6); Orn at 12, 21, 27 and 28; Aib at 15 and 20) [VPAC2 receptor peptide agonist P395] | 0.35 nM
B1 | 1.42 nM
HSDAVFTDQYTXLRXQVAAXXYLQSIXXGGPSSGAPPPS (N-terminal hexanoyl (C6); Orn at 12, 21, 27 and 28; Aib at 15 and 20) [VPAC2 receptor peptide agonist P396] | 1.05 nM
HSDAVFTDNYTXLRXSVAAXKYLQSIXNXGGPSSGAPPPS (N-terminal hexanoyl (C6); Orn at 12, 27 and 29; Aib at 15 and 20) [VPAC2 receptor peptide agonist P390] | 1.34 nM

Target: T4, human PAC1 (Homo sapiens, UniProt P41586)
T4 construct: expressed in transfected cells
T4 sequence (P41586 21-468): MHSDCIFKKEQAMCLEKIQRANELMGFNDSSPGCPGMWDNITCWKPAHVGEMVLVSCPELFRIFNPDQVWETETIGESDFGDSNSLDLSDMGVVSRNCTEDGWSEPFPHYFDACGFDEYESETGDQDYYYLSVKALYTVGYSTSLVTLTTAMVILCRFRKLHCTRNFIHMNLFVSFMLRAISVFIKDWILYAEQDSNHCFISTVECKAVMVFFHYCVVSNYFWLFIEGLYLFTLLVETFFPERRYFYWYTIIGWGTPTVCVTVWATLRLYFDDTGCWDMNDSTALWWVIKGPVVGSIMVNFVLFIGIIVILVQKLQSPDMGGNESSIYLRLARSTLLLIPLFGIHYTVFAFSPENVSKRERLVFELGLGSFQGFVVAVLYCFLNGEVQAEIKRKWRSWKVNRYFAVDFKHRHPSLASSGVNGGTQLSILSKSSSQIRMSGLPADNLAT
Assay: Filter binding assay, 125I-labeled PACAP-27 tracer, PAC1 membranes
Details: read-out: Human PAC1 Receptor Binding (IC50; nM)
Description: For this assay, the solutions and equipment include:
Presoak solution: 0.5% Polyethyleneamine in Aqua dest
Buffer for flushing filter plates: 25 mM HEPES pH 7.4
Blocking buffer: 25 mM HEPES pH 7.4; 0.2% protease free BSA
Assay buffer: 25 mM HEPES pH 7.4; 0.5% protease free BSA
Dilution and assay plate: PS-Microplate, U form
Filtration Plate: Multiscreen FB Opaque Plate; 1.0 μM Type B Glasfiber filter
In order to prepare the filter plates, the presoak solution is aspirated by vacuum filtration. The plates are flushed twice with 200 μL flush buffer. 200 μL blocking buffer is added to the filter plate. The filter plate is then incubated with 200 μL presoak solution for 1 hour at room temperature.
The assay plate is filled with 25 μL assay buffer, 25 μL membranes (2.5 μg) suspended in assay buffer, 25 μL compound (agonist) in assay buffer, and 25 μL tracer (about 40000 cpm) in assay buffer. The filled plate is incubated for 1 hour with shaking.
The transfer from assay plate to filter plate is conducted. The blocking buffer is aspirated by vacuum filtration and washed two times with flush buffer. 90 μL is transferred from the assay plate to the filter plate. The 90 μL transferred from assay plate is aspirated and washed three times with 200 μL flush buffer. The plastic support is removed. It is dried for 1 hour at 60° C. 30 μL Microscint is added. The count is performed.

Molecule | IC50
CCCCCC(=O)N[C@@H](Cc1c[nH]cn1)C(=O)N[C@@H](CO)C(=O)N[C@@H](CCC(=O)O)C(=O)N[C@@H](C)C(=O)N[C@H](C(=O)N[C@@H](Cc1ccccc1)C(=O)N[C@H](C(=O)N[C@@H](CCC(=O)O)C(=O)N[C@@H](CCC(N)=O)C(=O)N[C@@H](Cc1ccc(OC)cc1)C(=O)N[C@H](C(=O)N[C@@H](CCCN)C(=O)N[C@@H](CC(C)C)C(=O)N[C@@H](CCCNC(=N)N)C(=O)NC(C)(C)C(=O)N[C@@H](CCC(N)=O)C(=O)N[C@@H](CC(C)C)C(=O)N[C@@H](C)C(=O)N[C@@H](C)C(=O)NC(C)(C)C(=O)N[C@@H](CCCN)C(=O)N[C@@H](Cc1ccc(O)cc1)C(=O)N[C@@H](CC(C)C)C(=O)N[C@@H](CCC(N)=O)C(=O)N[C@@H](CO)C(=O)N[C@H](C(=O)N[C@@H](CCCN)C(=O)N[C@@H](CCCN)C(=O)NCC(=O)NCC(=O)N1CCC[C@H]1C(=O)N[C@@H](CO)C(=O)N[C@@H](CO)C(=O)NCC(=O)N[C@@H](C)C(=O)N1CCC[C@H]1C(=O)N1CCC[C@H]1C(=O)N1CCC[C@H]1C(=O)N[C@@H](CO)C(=O)O)[C@@H](C)CC)[C@@H](C)O)[C@@H](C)O)C(C)C [Agonist P393] (Hexanoyl-HSEAVFTEQY(Me)T[Orn]LR[Aib]QLAA[Aib][Orn]YLQSI[Orn][Orn]GGPSSGAPPPS-OH; C-terminus assumed) | > 25000 nM
CCCCCC(=O)N[C@@H](Cc1c[nH]cn1)C(=O)N[C@@H](CO)C(=O)N[C@@H](CC(=O)O)C(=O)N[C@@H](C)C(=O)N[C@H](C(=O)N[C@@H](Cc1ccccc1)C(=O)N[C@H](C(=O)N[C@@H](CC(=O)O)C(=O)N[C@@H](CC(N)=O)C(=O)N[C@@H](Cc1ccc(O)cc1)C(=O)N[C@H](C(=O)N[C@@H](CCCN)C(=O)N[C@@H](CC(C)C)C(=O)N[C@@H](CCCNC(=N)N)C(=O)NC(C)(C)C(=O)N[C@@H](CCC(N)=O)C(=O)N[C@@H](CO)C(=O)N[C@@H](C)C(=O)N[C@@H](C)C(=O)NC(C)(C)C(=O)N[C@@H](CCCCN)C(=O)N[C@@H](Cc1ccc(O)cc1)C(=O)N[C@@H](CC(C)C)C(=O)N[C@@H](CCC(N)=O)C(=O)N[C@@H](CO)C(=O)N[C@H](C(=O)N[C@@H](CCCN)C(=O)N[C@@H](CC(N)=O)C(=O)N[C@@H](CCCN)C(=O)NCC(=O)NCC(=O)N1CCC[C@H]1C(=O)N[C@@H](CO)C(=O)N[C@@H](CO)C(=O)NCC(=O)N[C@@H](C)C(=O)N1CCC[C@H]1C(=O)N1CCC[C@H]1C(=O)N1CCC[C@H]1C(=O)N[C@@H](CO)C(=O)O)[C@@H](C)CC)[C@@H](C)O)[C@@H](C)O)C(C)C [Agonist P389] (Hexanoyl-HSDAVFTDNYT[Orn]LR[Aib]QSAA[Aib]KYLQSI[Orn]N[Orn]GGPSSGAPPPS-OH; C-terminus assumed) | > 25000 nM
CCCCCC(=O)N[C@@H](Cc1c[nH]cn1)C(=O)N[C@@H](CO)C(=O)N[C@@H](CC(=O)O)C(=O)N[C@@H](C)C(=O)N[C@H](C(=O)N[C@@H](Cc1ccccc1)C(=O)N[C@H](C(=O)N[C@@H](CC(=O)O)C(=O)N[C@@H](CC(N)=O)C(=O)N[C@@H](Cc1ccc(O)cc1)C(=O)N[C@H](C(=O)N[C@@H](CCCN)C(=O)N[C@@H](CC(C)C)C(=O)N[C@@H](CCCNC(=N)N)C(=O)NC(C)(C)C(=O)N[C@@H](CCC(N)=O)C(=O)N[C@H](C(=O)N[C@@H](C)C(=O)N[C@@H](C)C(=O)NC(C)(C)C(=O)N[C@@H](CCCCN)C(=O)N[C@@H](CO)C(=O)N[C@@H](CC(C)C)C(=O)N[C@@H](CCC(N)=O)C(=O)N[C@@H](CO)C(=O)N[C@H](C(=O)N[C@@H](CCCN)C(=O)N[C@@H](CC(N)=O)C(=O)N[C@@H](CCCN)C(=O)NCC(=O)NCC(=O)N1CCC[C@H]1C(=O)N[C@@H](CO)C(=O)N[C@@H](CO)C(=O)NCC(=O)N[C@@H](C)C(=O)N1CCC[C@H]1C(=O)N1CCC[C@H]1C(=O)N1CCC[C@H]1C(=O)N[C@@H](CO)C(=O)O)[C@@H](C)CC)C(C)C)[C@@H](C)O)[C@@H](C)O)C(C)C [Agonist P385] (Hexanoyl-HSDAVFTDNYT[Orn]LR[Aib]QVAA[Aib]KSLQSI[Orn]N[Orn]GGPSSGAPPPS-OH; C-terminus assumed) | > 25000 nM
CCCCCC(=O)N[C@@H](Cc1c[nH]cn1)C(=O)N[C@@H](CO)C(=O)N[C@@H](CC(=O)O)C(=O)N[C@@H](C)C(=O)N[C@H](C(=O)N[C@@H](Cc1ccccc1)C(=O)N[C@H](C(=O)N[C@@H](CC(=O)O)C(=O)N[C@@H](CO)C(=O)N[C@@H](Cc1ccc(O)cc1)C(=O)N[C@H](C(=O)N[C@@H](CCCN)C(=O)N[C@@H](CC(C)C)C(=O)N[C@@H](CCCNC(=N)N)C(=O)NC(C)(C)C(=O)N[C@@H](CCC(N)=O)C(=O)N[C@H](C(=O)N[C@@H](C)C(=O)N[C@@H](C)C(=O)NC(C)(C)C(=O)N[C@@H](CCCCN)C(=O)N[C@@H](Cc1ccc(O)cc1)C(=O)N[C@@H](CC(C)C)C(=O)N[C@@H](CCC(N)=O)C(=O)N[C@@H](CO)C(=O)N[C@H](C(=O)N[C@@H](CCCN)C(=O)N[C@@H](CC(N)=O)C(=O)N[C@@H](CCCN)C(=O)NCC(=O)NCC(=O)N1CCC[C@H]1C(=O)N[C@@H](CO)C(=O)N[C@@H](CO)C(=O)NCC(=O)N[C@@H](C)C(=O)N1CCC[C@H]1C(=O)N1CCC[C@H]1C(=O)N1CCC[C@H]1C(=O)N[C@@H](CO)C(=O)O)[C@@H](C)CC)C(C)C)[C@@H](C)O)[C@@H](C)O)C(C)C [Agonist P392] (Hexanoyl-HSDAVFTDSYT[Orn]LR[Aib]QVAA[Aib]KYLQSI[Orn]N[Orn]GGPSSGAPPPS-OH; C-terminus assumed) | > 25000 nM
